Assay results from patent US20240166733A1 (VERSITECH, published 2024).

Columns and labels:
Experiment in all cases: ELISA, FABP coated on plate, HRP anti-mouse IgG detection, OD450
[1] = target: T1, mouse E-FABP recombinant protein (mouse, UniProt Q05816 1-135, limits assumed)
T1 construct: also called mouse epidermal-FABP
T1 sequence (looked up): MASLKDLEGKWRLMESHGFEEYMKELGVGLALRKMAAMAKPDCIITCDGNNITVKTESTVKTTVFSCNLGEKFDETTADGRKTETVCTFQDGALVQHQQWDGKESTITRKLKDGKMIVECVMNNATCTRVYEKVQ
Method: (§1) The mouse or human A-FABP, E-FABP, and H-FABP recombinant proteins ([…]) were coated on 96-well plates overnight for ELISA binding assay to evaluate the reactivity and specificity of monoclonal antibodies with various FABPs. [0155] 100 μL of 6H2 (1 μg/mL) was added to the wells and incubated for 1 h at room temperature. The plates were then washed three times with phosphate-buffered saline (PBS), followed by incubation with 0.2 μg/mL HRP-conjugated-[…] H+L (Proteintech, SA00001-1, Japan) as the detection antibody at room temperature for 1 hour. After washing with PBS, TMB chromogen solution (Beyotime, P0209, China) was added for color development; 2M H₂SO₄ was added to the wells to stop the enzyme-induced color reactions; and the absorbance at 450 nm was measured with a microtiter plate reader.

[2] = target: T2, human H-FABP recombinant protein (human, UniProt P05413 1-133, limits assumed)
T2 construct: also called human heart-FABP
T2 sequence (P05413 whole entry): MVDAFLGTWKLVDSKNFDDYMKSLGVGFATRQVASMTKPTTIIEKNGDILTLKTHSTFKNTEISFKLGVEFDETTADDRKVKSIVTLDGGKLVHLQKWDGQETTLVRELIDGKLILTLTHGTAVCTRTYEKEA
Method: as §1

[3] = target: T3, mouse H-FABP recombinant protein (mouse, UniProt P11404 1-133, limits assumed)
T3 construct: also called mouse heart-FABP
T3 sequence (P11404 whole entry): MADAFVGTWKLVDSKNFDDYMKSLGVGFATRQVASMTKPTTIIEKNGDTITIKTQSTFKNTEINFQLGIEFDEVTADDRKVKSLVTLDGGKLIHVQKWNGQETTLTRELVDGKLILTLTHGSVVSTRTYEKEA
Method: as §1

[4] = target: T4, human E-FABP recombinant protein (human, UniProt Q01469 1-135, limits assumed)
T4 construct: also called human epidermal-FABP
T4 sequence (Q01469 whole entry): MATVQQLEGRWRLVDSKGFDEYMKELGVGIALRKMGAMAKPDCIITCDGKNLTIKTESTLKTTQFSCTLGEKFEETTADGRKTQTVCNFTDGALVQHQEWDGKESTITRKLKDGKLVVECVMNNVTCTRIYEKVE
Method: as §1

Measured: binding result

B1: A-FABP neutralizing monoclonal antibody 6H2 (antibody, V domains shown)
VH: VKLQESGPELVKPGASVKIPCKASGYTFTDYNMDWVRQSRGKSLEWIGDINPYNGDTIYNQNFKGKATLTVDKSSTTAYLELRSLTSEDTAVYYCASGYGFWGQGTTVTVSS
VL: DIVMTQAPLSLPVSLGAQASISCRSSQSLVYINGNTYLHWYLQKPGQSPKLLIYKVSNRFSGVPDRFSGSGSGTDFTLKISRVEAEDLGVYFCSQSTHVPYTFGGGTKLEIK
notes: also called 6H2 mAb
no binding (tested: 6H2 at 1 µg/mL): all assays above
